Measured values published in patent US20070086956A1, “Method for accelerating the rate of mucociliary clearance” (BAYER AKTIENGESELLSCHAFT, priority 1998, published 2007).
Entries after “also recorded” stand apart in the source; their conditions may differ.

Tests used:
[1] = tested on: ovine tracheal epithelial cells; assay: Short circuit current (Isc) in cultured ovine tracheal epithelial (OTE) cells; type: cell-based; settings: 100 ug/mL; over a 90 minute period; FIG. 24
Procedure: The aim of this study was to investigate the effect of Bikunin (1-170) (See Example 17), on Isc in OTE cells in vitro. OTE cells were seeded onto 1.2 cm diameter, 0.4 um pore size Snapwell™ inserts (Costar UK). Cells were grown to confluence and mounted in modified Ussing chambers 3-5 days after placement on air-liquid interface. Inserts were immersed in Krebs buffer (KBR) solution and bubbled with 95% O2/5% CO2 warmed to 37° C.
After a 20 minute equilibration period, transepithelial potential difference was then clamped to 0 mV using a WPI EVC 4000 voltage clamp. Ag/AgCl electrodes were used to monitor Isc. Once a stable baseline was achieved (typically 30 mins), cells were treated with amiloride (10 uM). Once a response to amiloride was obtained, it was washed out with KBR solution. After return to baseline, Bikunin (1-170) described in Example 17 (25, 50 or 100 ug/mL) or PBS was added. 90 minutes following agent treatment amiloride (10 uM) was again added.

[2] = tested on: guinea pig trachea; assay: Tracheal potential difference in guinea pigs pretreated with LPS; type: in vivo; settings: 50 ug/mL topical instillation; guinea pigs pre-exposed to LPS; FIG. 25(b)
Procedure: Polymorphonuclear (PMN) leukocyte (neutrophil) dominated airway inflammation is often a feature of CF lung disease. In the guinea pig, exposure to an aerosol of E. coli lipopolysaccharide (LPS) induces a marked PMN influx in the bronchoalveolar Iavage fluid 24 hours post challenge. The aim of this study was to investigate the effect of Bikunin (1-170) described in Example 17 on tracheal potential difference in guinea pigs pre-exposed to an aerosol of LPS. Agents were delivered into the cephalad trachea by topical instillation. TPD was monitored for 60 minutes, 23 hours after exposure to LPS.
Bikunin (1-170) was formulated in Hank's Balanced salt solution (HBSS). Amiloride was obtained from Sigma Chemicals and formulated in HBSS. Vehicle control was HBSS. Hypnorm (Fentanyl citrate 0.315 mg/mL and Fluanisone 10 mg/mL) was obtained from Janssen Animal Health and Hypnovel (Midazolam 5 mg.mL) was obtained from Roche. […]
23.4 hours following LPS treatment, guinea pigs were anaesthetised with Hypnorm and Hypnovel and immobilised in a supine position. […] Rectal temperature was monitored with a thermistor probe.
20 minutes following induction of anaesthesia, Bikunin (50 ug/mL) or amiloride (100 uM) was topically instilled into the cephalad trachea. The tracheal agar electrode was then inserted into the cephalad trachea and tracheal potential difference was measured for 60 minutes. […]

[3] = tested on: guinea pig trachea; assay: Tracheal mucus velocity (TMV) in the guinea-pig; type: in vivo; settings: 5 ug tracheal instillation; 1.5 to 2.5 hours following administration; FIG. 16(c)
Procedure: The aim of this study was to investigate the effect of the Kunitz family serine protease inhibitor Bikunin on guinea-pig tracheal mucus velocity 1.5 hours post treatment. This agent was delivered into the cephalad trachea by topical instillation. TMV was monitored 1.5 hours later for 60 mins. The procedure used in this Example is described in Newton et al. in “Cila, Mucus and Mucociliary Interactions,” Ed., Baum, G. L. et al., Marcel Dekker, New York, 1998; Newton et al., Ped. Pulm. S17, Abs. 364, 1998). […]
TMV was monitored using a lead collimated miniature Beta particle detector probe arranged to detect the radioactivity emitted from an injected aliquot of ^32P-labelled Saccharomyces cerevisiae as it was transported on the tracheal mucociliary layer of an anaesthetized guinea pig (Newton and Hall 1998) FIG. 16(a) illustrates the arrangement of the syringe and beta probe. FIG. 16(b) illustrates the counts detected by the probe as the ^32P-labelled S. cerevisiae is transported along the tracheal mucociliary layer. […]
The aim of this comparative study was to investigate the effect of hypertonic saline (14.4%×5 min) on guinea-pig tracheal mucus velocity. […] TMV was monitored immediately and every 15 minutes for 30 minutes. […]

B1: CHO Bikunin (1-170): Glycosylated placental bikunin (1-170), SEQ ID NO: 52, expressed in Chinese hamster ovary cells (Example 17) (protein, listed as Homo sapiens)
chain: ADRERSIHDFCLVSKVVGRCRASMPRWWYNVTDGSCQLFVYGGCDGNSNNYLTKEECLKKCATVTENATGDLATSRNAADSSVPSAPRRQDSEDHSSDMFNYEEYCTANAVTGPCRASFPRWYFDVERNSCNNFIYGGCRGNKNSYRSEEACMLRCFRQQENPPLPLGSK
modifications: glycosylated, CHO-expressed
sodium current [1]: significantly inhibited sodium current | tracheal potential difference [2]: significantly inhibited potential difference | TMV [3]: increased TMV; also recorded: sustained increase in TMV
